Data as given in PMC6859858.

What was measured:
[1] = target: CPSF-160;WDR33;CPSF-30 (human;human;human, UniProt Q10570;Q9C0J8;O95639 1-1443;1-425;1-269, ||); assay: fluorescence polarization
[2] = target: T1, CPSF-160;WDR33;CPSF-30;Fip1 (human;human;human;human, UniProt Q10570;Q9C0J8;O95639;Q6UN15 1-1443;1-425;1-269;159-200, |||); assay: fluorescence polarization
Target sequence in this assay (Q10570 whole entry, chain 1 of 4, one chain of several): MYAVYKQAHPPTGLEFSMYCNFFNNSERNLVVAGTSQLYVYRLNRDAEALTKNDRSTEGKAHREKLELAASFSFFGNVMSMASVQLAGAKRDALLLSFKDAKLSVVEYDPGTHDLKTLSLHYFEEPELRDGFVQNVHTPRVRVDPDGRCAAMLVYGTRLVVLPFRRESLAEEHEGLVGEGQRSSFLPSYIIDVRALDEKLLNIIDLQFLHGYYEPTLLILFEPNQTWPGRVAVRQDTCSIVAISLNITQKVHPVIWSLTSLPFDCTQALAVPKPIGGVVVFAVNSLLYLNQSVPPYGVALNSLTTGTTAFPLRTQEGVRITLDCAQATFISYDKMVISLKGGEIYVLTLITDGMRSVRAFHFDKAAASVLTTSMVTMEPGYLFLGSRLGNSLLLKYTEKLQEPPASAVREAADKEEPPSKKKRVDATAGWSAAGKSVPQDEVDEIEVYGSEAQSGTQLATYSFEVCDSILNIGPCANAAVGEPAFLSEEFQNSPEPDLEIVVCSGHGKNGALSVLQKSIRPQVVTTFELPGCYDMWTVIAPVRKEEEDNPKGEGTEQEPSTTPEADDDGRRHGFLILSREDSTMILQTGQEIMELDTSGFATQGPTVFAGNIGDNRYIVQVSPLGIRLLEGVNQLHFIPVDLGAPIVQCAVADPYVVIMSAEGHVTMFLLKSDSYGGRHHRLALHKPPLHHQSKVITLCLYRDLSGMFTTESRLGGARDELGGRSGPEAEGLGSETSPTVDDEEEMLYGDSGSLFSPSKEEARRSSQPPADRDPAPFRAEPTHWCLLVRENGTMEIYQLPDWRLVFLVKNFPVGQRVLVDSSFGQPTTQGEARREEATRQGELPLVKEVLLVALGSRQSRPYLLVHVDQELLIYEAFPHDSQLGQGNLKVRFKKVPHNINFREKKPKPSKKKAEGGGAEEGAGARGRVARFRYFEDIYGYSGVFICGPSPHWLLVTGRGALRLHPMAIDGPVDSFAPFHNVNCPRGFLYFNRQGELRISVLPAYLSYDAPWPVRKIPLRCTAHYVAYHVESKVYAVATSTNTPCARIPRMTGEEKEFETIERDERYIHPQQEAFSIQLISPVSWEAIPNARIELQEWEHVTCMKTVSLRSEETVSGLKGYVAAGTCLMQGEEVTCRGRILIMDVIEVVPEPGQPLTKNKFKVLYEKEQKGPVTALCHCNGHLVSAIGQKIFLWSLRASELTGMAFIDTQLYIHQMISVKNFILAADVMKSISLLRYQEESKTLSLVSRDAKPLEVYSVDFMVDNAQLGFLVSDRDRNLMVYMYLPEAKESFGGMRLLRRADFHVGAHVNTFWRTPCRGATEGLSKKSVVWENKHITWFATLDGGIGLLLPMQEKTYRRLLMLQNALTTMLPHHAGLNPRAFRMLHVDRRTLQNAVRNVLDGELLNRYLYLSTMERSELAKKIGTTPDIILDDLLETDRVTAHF
Target sequence in this assay (Q9C0J8 1-425, chain 2 of 4, one chain of several): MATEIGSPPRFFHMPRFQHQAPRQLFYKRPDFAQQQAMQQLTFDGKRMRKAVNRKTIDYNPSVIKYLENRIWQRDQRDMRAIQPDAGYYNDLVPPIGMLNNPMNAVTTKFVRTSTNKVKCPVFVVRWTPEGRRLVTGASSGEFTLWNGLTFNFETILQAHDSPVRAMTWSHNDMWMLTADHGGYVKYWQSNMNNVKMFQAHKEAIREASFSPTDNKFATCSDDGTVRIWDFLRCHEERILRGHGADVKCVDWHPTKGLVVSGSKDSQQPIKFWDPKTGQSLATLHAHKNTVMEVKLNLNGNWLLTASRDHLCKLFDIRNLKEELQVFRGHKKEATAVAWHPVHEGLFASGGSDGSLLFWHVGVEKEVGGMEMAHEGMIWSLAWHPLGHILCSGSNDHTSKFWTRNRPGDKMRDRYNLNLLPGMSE
Target sequence in this assay (O95639 whole entry, chain 3 of 4, one chain of several): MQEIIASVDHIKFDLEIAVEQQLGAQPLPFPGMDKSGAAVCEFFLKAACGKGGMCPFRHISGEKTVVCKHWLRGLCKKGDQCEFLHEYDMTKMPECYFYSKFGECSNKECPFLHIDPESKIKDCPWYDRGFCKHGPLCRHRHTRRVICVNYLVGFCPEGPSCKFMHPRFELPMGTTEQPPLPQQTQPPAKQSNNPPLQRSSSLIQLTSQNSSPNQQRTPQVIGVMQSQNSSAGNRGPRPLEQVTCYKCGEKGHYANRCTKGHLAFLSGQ

[3] = target: T1, CPSF-160;WDR33;CPSF-30;Fip1; assay: fluorescence polarization; remark: listed apart in the source
Target sequence in this assay (Q10570 whole entry, chain 1 of 3): as the sequence (Q10570 whole entry, chain 1 of 4, one chain of several) above
Target sequence in this assay (Q9C0J8 1-425, chain 2 of 3): as the sequence (Q9C0J8 1-425, chain 2 of 4, one chain of several) above
Target sequence in this assay (O95639 whole entry, chain 3 of 3): as the sequence (O95639 whole entry, chain 3 of 4, one chain of several) above

[4] = target: T2, Fip1 (human, UniProt Q6UN15 159-200); assay: fluorescence polarization
T2 chain: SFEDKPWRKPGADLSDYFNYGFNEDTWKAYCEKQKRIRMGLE

[5] = target: CPSF-160;WDR33;CPSF-30 R73A;Fip1 (human;human;human;human, UniProt Q10570;Q9C0J8;O95639;Q6UN15 1-1443;1-425;1-269;159-200, ||R73A|); assay: fluorescence polarization
[6] = target: CPSF-160;WDR33;CPSF-30 F112A;Fip1 (human;human;human;human, UniProt Q10570;Q9C0J8;O95639;Q6UN15 1-1443;1-425;1-269;159-200, ||F112A|); assay: fluorescence polarization
[7] = target: CPSF-160;WDR33;CPSF-30 H70A;Fip1 (human;human;human;human, UniProt Q10570;Q9C0J8;O95639;Q6UN15 1-1443;1-425;1-269;159-200, ||H70A|); assay: fluorescence polarization
[8] = target: CPSF-160;WDR33;CPSF-30 F84A;Fip1 (human;human;human;human, UniProt Q10570;Q9C0J8;O95639;Q6UN15 1-1443;1-425;1-269;159-200, ||F84A|); assay: fluorescence polarization
[9] = target: T1, CPSF-160;WDR33;CPSF-30;Fip1; assay: fluorescence polarization; remark: listed apart in the source
Target sequence in this assay (Q10570 whole entry, chain 1 of 4, one chain of several): as the sequence (Q10570 whole entry, chain 1 of 4, one chain of several) above
Target sequence in this assay (Q9C0J8 1-425, chain 2 of 4, one chain of several): as the sequence (Q9C0J8 1-425, chain 2 of 4, one chain of several) above
Target sequence in this assay (O95639 whole entry, chain 3 of 4, one chain of several): as the sequence (O95639 whole entry, chain 3 of 4, one chain of several) above

[10] = target: T1, CPSF-160;WDR33;CPSF-30;Fip1; assay: competition fluorescence polarization
Target sequence in this assay (Q10570 whole entry, chain 1 of 3): as the sequence (Q10570 whole entry, chain 1 of 4, one chain of several) above
Target sequence in this assay (Q9C0J8 1-425, chain 2 of 3): as the sequence (Q9C0J8 1-425, chain 2 of 4, one chain of several) above
Target sequence in this assay (O95639 whole entry, chain 3 of 3): as the sequence (O95639 whole entry, chain 3 of 4, one chain of several) above

[11] = target: T1, CPSF-160;WDR33;CPSF-30;Fip1; assay: competition fluorescence polarization; remark: listed apart in the source
Target sequence in this assay (Q10570 whole entry, chain 1 of 4, one chain of several): as the sequence (Q10570 whole entry, chain 1 of 4, one chain of several) above
Target sequence in this assay (Q9C0J8 1-425, chain 2 of 4, one chain of several): as the sequence (Q9C0J8 1-425, chain 2 of 4, one chain of several) above
Target sequence in this assay (O95639 whole entry, chain 3 of 4, one chain of several): as the sequence (O95639 whole entry, chain 3 of 4, one chain of several) above

B1: 17-mer AAUAAA PAS (ssRNA)
RNA: AACCUCCAAUAAACAAC
Kd [1]: 250 ± 50 pM
Kd [2]: 190 ± 30 pM
binding signal [3]: 3 fold higher Kd than maximal binding
binding result [4]: no binding
binding signal [5]: 17 fold higher Kd than wild type
binding signal [6]: 140 fold higher Kd than wild type
binding signal [7]: 90 fold higher Kd than wild type
binding signal [8]: 8 fold higher Kd than wild type
Kd [9]: 280 ± 70 pM

B2: 7-mer AAUAAAC, unlabeled (ssRNA)
RNA: AAUAAAC
binding signal [10]: 35 fold higher Kd than 11-mer

B3: 11-mer AAUAAA PAS, FAM (ssRNA)
RNA: CAAUAAACAAC
Kd [9]: 320 ± 40 pM

B4: 6-mer AAUAAA, FAM (ssRNA)
RNA: AAUAAA
modifications: 3' phosphate linking the FAM
Kd [9]: 8050 ± 450 pM

B5: 8-mer AAUAAA, unlabeled (ssRNA)
RNA: CAAUAAAC
Kd [11]: 57000 ± 18000 pM
